Here are results for 13 molecules from paper PMC7387707, “An (R)-Selective Transaminase From Thermomyces stellatus: Stabilizing the Tetrameric Form” (Frontiers in Bioengineering and Biotechnology, 2020).

Data set [1] has as its target T1, TsRTA (Microascus stellatus, UniProt Z9EHZ8S8K6).
T1 construct: codon-optimised synthetic gene in pCH93b (pET22b(+)-derived, TEV site added), E. coli BL21 STAR (DE3), Ni-IMAC, C-terminal His-tag; structure residues 1-319 seen, 320-334 plus tag disordered
T1 sequence (Z9EHZ8S8K6 10-343): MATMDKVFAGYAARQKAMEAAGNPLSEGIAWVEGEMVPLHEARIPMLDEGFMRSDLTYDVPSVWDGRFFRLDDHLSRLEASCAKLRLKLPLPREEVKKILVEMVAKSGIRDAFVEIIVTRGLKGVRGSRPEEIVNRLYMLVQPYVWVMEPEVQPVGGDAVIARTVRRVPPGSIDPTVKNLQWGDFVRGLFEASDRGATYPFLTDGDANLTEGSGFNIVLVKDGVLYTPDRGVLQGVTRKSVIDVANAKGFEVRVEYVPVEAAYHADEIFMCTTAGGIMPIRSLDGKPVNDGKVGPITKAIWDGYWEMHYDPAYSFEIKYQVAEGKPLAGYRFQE
The data set can be described thus: X-ray structure, […] Å. In kind it is binding. The following applies: covalent (imine with K178); active site.

The next data set addresses T2, AtRTA (Aspergillus terreus, UniProt Q0C8G1).
T2 construct: gene ATEG_10023; synthetic gene (Johnson Matthey) in pCH93b (pET22b(+)-derived, TEV site added), E. coli BL21 STAR (DE3), Ni-IMAC
The data set can be described thus: acetophenone formation, plate reader; substrate-inhibition fit. Conditions: 30 °C, pH 8. In kind it is biochemical. An excerpt:
(§1) acetophenone formation, plate reader; substrate-inhibition fit on AtRTA

For data set [2], the target named is T1, TsRTA. Described as above. Type of data set: biochemical. Conditions: 30 °C, pH 8. An excerpt: (§2) acetophenone formation, plate reader; substrate-inhibition fit on TsRTA
Data set [3] addresses T3, TsRTA (Microascus stellatus, UniProt Z9EHZ8S8K6, G205C).
T3 construct: codon-optimised synthetic gene in pCH93b (pET22b(+)-derived, TEV site added), E. coli BL21 STAR (DE3), Ni-IMAC, C-terminal His-tag; structure residues 1-319 seen, 320-334 plus tag disordered
T3 sequence (Z9EHZ8S8K6 10-343 G205C): T1 sequence (Z9EHZ8S8K6 10-343)
The description is as above. Type of data set: biochemical. Conditions: 10 mM pyruvate, 1% DMSO, 30 °C, pH 8.
Excerpt: as §2

Data set [4] deals with (R)-selective transaminase from Thermomyces stellatus (TsRTA), wild type (Thermomyces stellatus). The data set can be described thus: SEC; Superdex 200 10/300 GL; 50 mM potassium phosphate, 100 mM NaCl, 0.1 mM PLP, pH 8; ca 2 mg/mL protein; injected directly after preparation or after incubation (ambient temperature; or 10 mM β-mercaptoethanol at 4°C for 2 days, dialysis, overnight aeration); shares of tetramer, dimer and monomer; 0-1,200 mM NaCl had no effect on the tetramer.

For data set [5], the system named is C[C@@H](N)c1ccccc1. Description: acetophenone formation, plate reader; substrate-inhibition fit. Type of data set: biochemical, Aspergillus terreus. Conditions: 10 mM pyruvate, 1% DMSO, 30 °C, pH 8.
Excerpt: as §1

Data set [6] has as its system CC(=O)C(=O)O. The data set is described as above. Type of data set: biochemical, Aspergillus terreus. Conditions: 2.5 mM RMBA, 0.25% DMSO, 30 °C, pH 8.
Excerpt: as §1

The test system of the next data set is Q0C8G1. Conditions: SEC. (In general: SEC sorts molecules by how far they enter the pores of the column.)
The target of data set [7] is AtRTA_G207C (Aspergillus terreus) (UniProt Q0C8G1).
For data set [8] the target is unchanged. The data set can be described thus: SEC.
In data set [9] the test system is C[C@@H](N)c1ccccc1. Description: acetophenone formation, plate reader; substrate-inhibition fit. Type of data set: biochemical, Microascus stellatus. Conditions: 10 mM pyruvate, 1% DMSO, 30 °C, pH 8.
Excerpt: as §2

Data set [10] concerns CC(=O)C(=O)O. Described as above. In kind it is biochemical, Microascus stellatus. The following applies: 2.5 mM RMBA, 0.25% DMSO, 30 °C, pH 8.
Excerpt: as §2

Data set [11] deals with C[C@@H](N)c1ccccc1. Description: purified protein. The following applies: 10 mM pyruvate, 1% DMSO, 30 °C, pH 8.
The subject of data set [12] is CC(=O)C(=O)O. The data set can be described thus: purified protein. The following applies: 2.5 mM RMBA, 0.25% DMSO, 30 °C, pH 8.
Data set [13] can be described thus: SEC; Superdex 200 10/300 GL; 50 mM potassium phosphate, 100 mM NaCl, 0.1 mM PLP, pH 8; ca 2 mg/mL protein; injected directly after preparation or after incubation (ambient temperature; or 10 mM β-mercaptoethanol at 4°C for 2 days, dialysis, overnight aeration); shares of tetramer, dimer and ….
Data set [14] concerns the target TsRTA_G205C (Thermomyces stellatus). The data set can be described thus: SEC; Superdex 200 10/300 GL; 50 mM potassium phosphate, 100 mM NaCl, 0.1 mM PLP, pH 8; ca 2 mg/mL protein; injected directly after preparation or after incubation (ambient temperature; or 10 mM β-mercaptoethanol at 4°C for 2 days, dialysis, overnight aeration); shares of tetramer, dimer and monomer; 0-1,200 mM NaCl had no effect on the tetramer.

Data set [15] concerns the molecule itself. Described as above.

As to `Cc1ncc(COP(=O)(O)O)c(C=O)c1O` [PLP], the “X-ray structure, 2.2 Å” value at TsRTA [1] is reported as “The active site pocket houses a single PLP molecule, covalently bound to each TsRTA chain”.
For `CC(=O)C(=O)O` [Pyruvate], the Ki (in general, a measure of affinity in units of concentration, obtained from inhibition or displacement) on AtRTA (2.5 mM RMBA, 0.25% DMSO) is recorded as 52 ± 4 mM; at TsRTA [2] (2.5 mM RMBA, 0.25% DMSO), 39 ± 5 mM.
`C[C@@H](N)c1ccccc1` [RMBA]: the “Ki” value was determined as 19 ± 1 mM at AtRTA (10 mM pyruvate, 1% DMSO); 20 ± 2 mM on TsRTA [3]; 15 ± 1 mM on TsRTA [2] (10 mM pyruvate, 1% DMSO).
In the case of “(R)-selective transaminase from Thermomyces stellatus (TsRTA), wild type (enzyme)”, in data set [4], the percent dimer came to 10%; the percent tetramer stood at 90%; the stoichiometry N (commonly the number of molecules, sites or subunits per partner or assembly) was 4.
In the case of AtRTA (Aspergillus terreus NIH2624), in the data set with C[C@@H](N)c1ccccc1 [5], the Km – broadly, the substrate concentration at which the rate is half of its maximum – came out at 170 ± 10 µM; the kcat (commonly the number of substrate molecules converted per active site and unit of time at saturation) worked out at 2.24 ± 0.04 s⁻¹; the kcat/Km – broadly, the second-order rate constant that governs catalysis at low substrate concentration – turned out to be 13300 ± 500 M⁻¹ s⁻¹.
For the molecule “AtRTA (Aspergillus terreus NIH2624; G207C)”, in the data set on C[C@@H](N)c1ccccc1 [5], the Km is 300 ± 20 µM, the kcat turned out to be 1.96 ± 0.05 s⁻¹ and the kcat/Km turned out to be 6400 ± 300 M⁻¹ s⁻¹. In addition, in the data set with CC(=O)C(=O)O [6], the Km was 190 ± 10 µM, the kcat worked out at 1.71 ± 0.03 s⁻¹ and the kcat/Km came to 9200 ± 500 M⁻¹ s⁻¹.
In the case of AtRTA_G207C, the “percent tetramer (sample with a lower proportion of tetramer used for the thermostability assay)” value in the data set with Q0C8G1 was “AtRTA_G207C: 55% tetramer”.
“AtRTA_G207C (from UniProt Q0C8G1 1-325) (enzyme)”: the increase in enzyme activity after β-mercaptoethanol pre-treatment in data set [7] came to 65%. For the same molecule, in [8], the percent dimer (after β-mercaptoethanol, dialysis and aeration) amounted to 5%; the percent dimer (immediately following purification) is 19%; the percent dimer and tetramer (after β-mercaptoethanol pre-treatment) is 94%; the percent dimer and tetramer (before β-mercaptoethanol pre-treatment) was 57%. In data set [8], this molecule gave a percent monomer (after β-mercaptoethanol, dialysis and aeration) of 6%; a percent monomer (immediately following purification) of 52%; a percent tetramer (after β-mercaptoethanol, dialysis and aeration) of 89%; a percent tetramer (immediately following purification) of 28%. Further, the stoichiometry N in data set [8] stood at 4.
For TsRTA (Microascus stellatus), in the data set with C[C@@H](N)c1ccccc1 [9], the Km amounted to 130 ± 10 µM, the kcat stood at 1.82 ± 0.03 s⁻¹ and the kcat/Km was 13800 ± 600 M⁻¹ s⁻¹. Besides, in the data set with CC(=O)C(=O)O [10], the Km was found to be 570 ± 30 µM, the kcat was 2.21 ± 0.04 s⁻¹ and the kcat/Km worked out at 3900 ± 100 M⁻¹ s⁻¹.
With TsRTA (Microascus stellatus; G205C), in the data set on C[C@@H](N)c1ccccc1 [11], the Km is 120 ± 10 µM, the kcat was determined as 1.35 ± 0.03 s⁻¹ and the kcat/Km was determined as 11000 ± 600 M⁻¹ s⁻¹. In addition, in the data set on CC(=O)C(=O)O [12], the Km stood at 420 ± 10 µM, the kcat is 1.33 ± 0.02 s⁻¹ and the kcat/Km was determined as 3200 ± 100 M⁻¹ s⁻¹.
For TsRTA_G205C, the “percent tetramer (sample with a lower proportion of tetramer used for the thermostability assay)” value in data set [13] is recorded as “TsRTA_G205C: 75% tetramer”.
Take TsRTA_G205C (enzyme): in data set [14], the percent dimer (after β-mercaptoethanol, dialysis and aeration) came out at 11%; the percent dimer (immediately following purification) worked out at 42%; the percent monomer (immediately following purification) was determined as 2%; the percent tetramer (after β-mercaptoethanol, dialysis and aeration) came to 89%. Also, in data set [14], the percent tetramer (immediately following purification) was 55% and the stoichiometry N was 4.

B1: (R)-selective transaminase from Aspergillus terreus (AtRTA), wild type (enzyme)
chain: MASMDKVFAGYAARQAILESTETTNPFAKGIAWVEGELVPLAEARIPLLDQGFMHSDLTYDVPSVWDGRFFRLDDHITRLEASCTKLRLRLPLPRDQVKQILVEMVAKSGIRDAFVELIVTRGLKGVRGTRPEDIVNNLYMFVQPYVWVMEPDMQRVGGSAVVARTVRRVPPGAIDPTVKNLQWGDLVRGMFEAADRGATYPFLTDGDAHLTEGSGFNIVLVKDGVLYTPDRGVLQGVTRKSVINAAEAFGIEVRVEFVPVELAYRCDEIFMCTTAGGIMPITTLDGMPVNGGQIGPITKKIWDGYWAMHYDAAYSFEIDYNERN
notes: the forward primer holds the ATG; Same vector as TsRTA, whose His-tag is C-terminal; also called omega transaminase from Aspergillus terreus; source: E. coli BL21 STAR (DE3), purified (IMAC)
On to B1, for which the “stoichiometry N” value in data set [15] stood at 4.
